In assay [1] the target is T1, human CD28, full-length, expressed on transfected Expi293 cells (human, UniProt P10747 19-220).
T1 construct: whole, on cells
Kind of assay: flow cytometry, 100 nM, Expi293 cells with human CD28.

Assay [2] has as its target T2, human CTLA-4, full-length, expressed on transfected Expi293 cells (human, UniProt P16410 36-223).
T2 construct: whole, on cells
Kind of assay: flow cytometry, 100 nM, Expi293 cells with human CTLA-4.

T2 sequence (P16410 36-223): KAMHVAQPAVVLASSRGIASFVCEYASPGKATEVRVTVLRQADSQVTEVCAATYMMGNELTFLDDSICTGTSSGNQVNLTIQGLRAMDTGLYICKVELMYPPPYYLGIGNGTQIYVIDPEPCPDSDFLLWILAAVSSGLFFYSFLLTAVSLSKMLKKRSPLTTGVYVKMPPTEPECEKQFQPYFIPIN

B1: variant ICOSL IgV-Fc fusion N52A/N57H/Q100S (Fc fusion)
chain: DTQEKEVRAMVGSDVELSCACPEGSRFDLNDVYVYWQTSESKTVVTYHIPQASSLEHVDSRYRNRALMSPAGMLRGDFSLRLFNVTPQDEQKFHCLVLSSSLGFQEVLSVEVTLHVAANFSVGSGGGGSEPKSSDKTHTCPPCPAPEAEGAPSVFLFPPKPKDTLMISRTPEVTCVVVDVSHEDPEVKFNWYVDGVEVHNAKTKPREEQYNSTYRVVSVLTVLHQDWLNGKEYKCKVSNKALPAPIEKTISKAKGQPREPQVYTLPPSREEMTKNQVSLTCLVKGFYPSDIAVEWESNGQPENNYKTTPPVLDSDGSFFLYSKLTVDKSRWQQGNVFSCSVMHEALHNHYTQKSLSLSPG
In the case of B1, the MFI in assay [1] came out at 159000 MFI; in assay [2], 321000 MFI.

B2: variant ICOSL IgV-Fc fusion N52R/N57F/Q100P (Fc fusion)
chain: DTQEKEVRAMVGSDVELSCACPEGSRFDLNDVYVYWQTSESKTVVTYHIPQRSSLEFVDSRYRNRALMSPAGMLRGDFSLRLFNVTPQDEQKFHCLVLSPSLGFQEVLSVEVTLHVAANFSVGSGGGGSEPKSSDKTHTCPPCPAPEAEGAPSVFLFPPKPKDTLMISRTPEVTCVVVDVSHEDPEVKFNWYVDGVEVHNAKTKPREEQYNSTYRVVSVLTVLHQDWLNGKEYKCKVSNKALPAPIEKTISKAKGQPREPQVYTLPPSREEMTKNQVSLTCLVKGFYPSDIAVEWESNGQPENNYKTTPPVLDSDGSFFLYSKLTVDKSRWQQGNVFSCSVMHEALHNHYTQKSLSLSPG
Take B2: the results for the MFI in assay [1] and in assay [2] were 154000 MFI and 504000 MFI, respectively.

B3: variant ICOSL IgV-Fc fusion N52R/N57F/Q100N (Fc fusion)
chain: DTQEKEVRAMVGSDVELSCACPEGSRFDLNDVYVYWQTSESKTVVTYHIPQRSSLEFVDSRYRNRALMSPAGMLRGDFSLRLFNVTPQDEQKFHCLVLSNSLGFQEVLSVEVTLHVAANFSVGSGGGGSEPKSSDKTHTCPPCPAPEAEGAPSVFLFPPKPKDTLMISRTPEVTCVVVDVSHEDPEVKFNWYVDGVEVHNAKTKPREEQYNSTYRVVSVLTVLHQDWLNGKEYKCKVSNKALPAPIEKTISKAKGQPREPQVYTLPPSREEMTKNQVSLTCLVKGFYPSDIAVEWESNGQPENNYKTTPPVLDSDGSFFLYSKLTVDKSRWQQGNVFSCSVMHEALHNHYTQKSLSLSPG
In the case of B3, the MFI was 161000 MFI in assay [1] and 233000 MFI in assay [2].

B4: variant ICOSL IgV-Fc fusion N52S/N57L/Q100G (Fc fusion)
chain: DTQEKEVRAMVGSDVELSCACPEGSRFDLNDVYVYWQTSESKTVVTYHIPQSSSLELVDSRYRNRALMSPAGMLRGDFSLRLFNVTPQDEQKFHCLVLSGSLGFQEVLSVEVTLHVAANFSVGSGGGGSEPKSSDKTHTCPPCPAPEAEGAPSVFLFPPKPKDTLMISRTPEVTCVVVDVSHEDPEVKFNWYVDGVEVHNAKTKPREEQYNSTYRVVSVLTVLHQDWLNGKEYKCKVSNKALPAPIEKTISKAKGQPREPQVYTLPPSREEMTKNQVSLTCLVKGFYPSDIAVEWESNGQPENNYKTTPPVLDSDGSFFLYSKLTVDKSRWQQGNVFSCSVMHEALHNHYTQKSLSLSPG
On to B4, for which the MFI in assay [1] was 71900 MFI; in assay [2], 79400 MFI.

B5: variant ICOSL IgV-Fc fusion N52S/N57A/Q100A (Fc fusion)
chain: DTQEKEVRAMVGSDVELSCACPEGSRFDLNDVYVYWQTSESKTVVTYHIPQSSSLEAVDSRYRNRALMSPAGMLRGDFSLRLFNVTPQDEQKFHCLVLSASLGFQEVLSVEVTLHVAANFSVGSGGGGSEPKSSDKTHTCPPCPAPEAEGAPSVFLFPPKPKDTLMISRTPEVTCVVVDVSHEDPEVKFNWYVDGVEVHNAKTKPREEQYNSTYRVVSVLTVLHQDWLNGKEYKCKVSNKALPAPIEKTISKAKGQPREPQVYTLPPSREEMTKNQVSLTCLVKGFYPSDIAVEWESNGQPENNYKTTPPVLDSDGSFFLYSKLTVDKSRWQQGNVFSCSVMHEALHNHYTQKSLSLSPG
Turning to B5, the MFI came to 98200 MFI in assay [1] and 233000 MFI in assay [2].

B6: variant ICOSL IgV-Fc fusion N52P/N57P (Fc fusion)
chain: DTQEKEVRAMVGSDVELSCACPEGSRFDLNDVYVYWQTSESKTVVTYHIPQPSSLEPVDSRYRNRALMSPAGMLRGDFSLRLFNVTPQDEQKFHCLVLSQSLGFQEVLSVEVTLHVAANFSVGSGGGGSEPKSSDKTHTCPPCPAPEAEGAPSVFLFPPKPKDTLMISRTPEVTCVVVDVSHEDPEVKFNWYVDGVEVHNAKTKPREEQYNSTYRVVSVLTVLHQDWLNGKEYKCKVSNKALPAPIEKTISKAKGQPREPQVYTLPPSREEMTKNQVSLTCLVKGFYPSDIAVEWESNGQPENNYKTTPPVLDSDGSFFLYSKLTVDKSRWQQGNVFSCSVMHEALHNHYTQKSLSLSPG
Consider B6, for which the MFI in assay [1] amounted to 21000 MFI.

B7: variant ICOSL IgV-Fc fusion N52D/Q100S (Fc fusion)
chain: DTQEKEVRAMVGSDVELSCACPEGSRFDLNDVYVYWQTSESKTVVTYHIPQDSSLENVDSRYRNRALMSPAGMLRGDFSLRLFNVTPQDEQKFHCLVLSSSLGFQEVLSVEVTLHVAANFSVGSGGGGSEPKSSDKTHTCPPCPAPEAEGAPSVFLFPPKPKDTLMISRTPEVTCVVVDVSHEDPEVKFNWYVDGVEVHNAKTKPREEQYNSTYRVVSVLTVLHQDWLNGKEYKCKVSNKALPAPIEKTISKAKGQPREPQVYTLPPSREEMTKNQVSLTCLVKGFYPSDIAVEWESNGQPENNYKTTPPVLDSDGSFFLYSKLTVDKSRWQQGNVFSCSVMHEALHNHYTQKSLSLSPG
B7: the MFI was found to be 95700 MFI in assay [1] and 333000 MFI in assay [2].

B8: variant ICOSL IgV-Fc fusion N52R/N57F/Q100R (Fc fusion)
chain: DTQEKEVRAMVGSDVELSCACPEGSRFDLNDVYVYWQTSESKTVVTYHIPQRSSLEFVDSRYRNRALMSPAGMLRGDFSLRLFNVTPQDEQKFHCLVLSRSLGFQEVLSVEVTLHVAANFSVGSGGGGSEPKSSDKTHTCPPCPAPEAEGAPSVFLFPPKPKDTLMISRTPEVTCVVVDVSHEDPEVKFNWYVDGVEVHNAKTKPREEQYNSTYRVVSVLTVLHQDWLNGKEYKCKVSNKALPAPIEKTISKAKGQPREPQVYTLPPSREEMTKNQVSLTCLVKGFYPSDIAVEWESNGQPENNYKTTPPVLDSDGSFFLYSKLTVDKSRWQQGNVFSCSVMHEALHNHYTQKSLSLSPG
In the case of B8, the MFI in assay [1] was 185000 MFI; in assay [2] it was 464000 MFI.

B9: variant ICOSL IgV-Fc fusion N52R/N57W (Fc fusion)
chain: DTQEKEVRAMVGSDVELSCACPEGSRFDLNDVYVYWQTSESKTVVTYHIPQRSSLEWVDSRYRNRALMSPAGMLRGDFSLRLFNVTPQDEQKFHCLVLSQSLGFQEVLSVEVTLHVAANFSVGSGGGGSEPKSSDKTHTCPPCPAPEAEGAPSVFLFPPKPKDTLMISRTPEVTCVVVDVSHEDPEVKFNWYVDGVEVHNAKTKPREEQYNSTYRVVSVLTVLHQDWLNGKEYKCKVSNKALPAPIEKTISKAKGQPREPQVYTLPPSREEMTKNQVSLTCLVKGFYPSDIAVEWESNGQPENNYKTTPPVLDSDGSFFLYSKLTVDKSRWQQGNVFSCSVMHEALHNHYTQKSLSLSPG
Turning to B9, the MFI came to 137000 MFI in assay [1] and 318000 MFI in assay [2].

B10: variant ICOSL IgV-Fc fusion N52D/N57A/Q100A (Fc fusion)
chain: DTQEKEVRAMVGSDVELSCACPEGSRFDLNDVYVYWQTSESKTVVTYHIPQDSSLEAVDSRYRNRALMSPAGMLRGDFSLRLFNVTPQDEQKFHCLVLSASLGFQEVLSVEVTLHVAANFSVGSGGGGSEPKSSDKTHTCPPCPAPEAEGAPSVFLFPPKPKDTLMISRTPEVTCVVVDVSHEDPEVKFNWYVDGVEVHNAKTKPREEQYNSTYRVVSVLTVLHQDWLNGKEYKCKVSNKALPAPIEKTISKAKGQPREPQVYTLPPSREEMTKNQVSLTCLVKGFYPSDIAVEWESNGQPENNYKTTPPVLDSDGSFFLYSKLTVDKSRWQQGNVFSCSVMHEALHNHYTQKSLSLSPG
Consider B10, for which the MFI in assay [1] amounted to 138000 MFI; in assay [2], 340000 MFI.

B11: variant ICOSL IgV-Fc fusion N52R/N57Y/Q100P (Fc fusion)
chain: DTQEKEVRAMVGSDVELSCACPEGSRFDLNDVYVYWQTSESKTVVTYHIPQRSSLEYVDSRYRNRALMSPAGMLRGDFSLRLFNVTPQDEQKFHCLVLSPSLGFQEVLSVEVTLHVAANFSVGSGGGGSEPKSSDKTHTCPPCPAPEAEGAPSVFLFPPKPKDTLMISRTPEVTCVVVDVSHEDPEVKFNWYVDGVEVHNAKTKPREEQYNSTYRVVSVLTVLHQDWLNGKEYKCKVSNKALPAPIEKTISKAKGQPREPQVYTLPPSREEMTKNQVSLTCLVKGFYPSDIAVEWESNGQPENNYKTTPPVLDSDGSFFLYSKLTVDKSRWQQGNVFSCSVMHEALHNHYTQKSLSLSPG
Regarding B11, the figures for the MFI in assay [1] and in assay [2] were 133000 MFI and 502000 MFI, respectively.

B12: variant ICOSL IgV-Fc fusion N52G/N57P/Q100D (Fc fusion)
chain: DTQEKEVRAMVGSDVELSCACPEGSRFDLNDVYVYWQTSESKTVVTYHIPQGSSLEPVDSRYRNRALMSPAGMLRGDFSLRLFNVTPQDEQKFHCLVLSDSLGFQEVLSVEVTLHVAANFSVGSGGGGSEPKSSDKTHTCPPCPAPEAEGAPSVFLFPPKPKDTLMISRTPEVTCVVVDVSHEDPEVKFNWYVDGVEVHNAKTKPREEQYNSTYRVVSVLTVLHQDWLNGKEYKCKVSNKALPAPIEKTISKAKGQPREPQVYTLPPSREEMTKNQVSLTCLVKGFYPSDIAVEWESNGQPENNYKTTPPVLDSDGSFFLYSKLTVDKSRWQQGNVFSCSVMHEALHNHYTQKSLSLSPG
In the case of B12, the results for the MFI in assay [1] and in assay [2] were 5720 MFI and 10200 MFI, respectively.

B13: variant ICOSL IgV-Fc fusion N52T/N57K/Q100P (Fc fusion)
chain: DTQEKEVRAMVGSDVELSCACPEGSRFDLNDVYVYWQTSESKTVVTYHIPQTSSLEKVDSRYRNRALMSPAGMLRGDFSLRLFNVTPQDEQKFHCLVLSPSLGFQEVLSVEVTLHVAANFSVGSGGGGSEPKSSDKTHTCPPCPAPEAEGAPSVFLFPPKPKDTLMISRTPEVTCVVVDVSHEDPEVKFNWYVDGVEVHNAKTKPREEQYNSTYRVVSVLTVLHQDWLNGKEYKCKVSNKALPAPIEKTISKAKGQPREPQVYTLPPSREEMTKNQVSLTCLVKGFYPSDIAVEWESNGQPENNYKTTPPVLDSDGSFFLYSKLTVDKSRWQQGNVFSCSVMHEALHNHYTQKSLSLSPG
With B13, the MFI in assay [1] turned out to be 88700 MFI; in assay [2] it was 78300 MFI.

B14: variant ICOSL IgV-Fc fusion N52T/N57Y/Q100A (Fc fusion)
chain: DTQEKEVRAMVGSDVELSCACPEGSRFDLNDVYVYWQTSESKTVVTYHIPQTSSLEYVDSRYRNRALMSPAGMLRGDFSLRLFNVTPQDEQKFHCLVLSASLGFQEVLSVEVTLHVAANFSVGSGGGGSEPKSSDKTHTCPPCPAPEAEGAPSVFLFPPKPKDTLMISRTPEVTCVVVDVSHEDPEVKFNWYVDGVEVHNAKTKPREEQYNSTYRVVSVLTVLHQDWLNGKEYKCKVSNKALPAPIEKTISKAKGQPREPQVYTLPPSREEMTKNQVSLTCLVKGFYPSDIAVEWESNGQPENNYKTTPPVLDSDGSFFLYSKLTVDKSRWQQGNVFSCSVMHEALHNHYTQKSLSLSPG
As to B14, the MFI in assay [1] was found to be 161000 MFI; in assay [2], 341000 MFI.

The values above are taken from patent US20230235012A1 (ALPINE IMMUNE SCIENCES, published 2023).
